Data on 27 sequences can be found in the Immune Epitope Database (IEDB).

For orientation: Kd means the free concentration of one partner at which half of the binding sites on the other are occupied at equilibrium, for simple one-to-one binding.

Assay [1] concerns the target HLA-A*30:01. Kind of assay: IEDB peptide-MHC binding, purified MHC/competitive/radioactivity; filed as Kd, often an IC50 or EC50 that approximates it; ≥ and ≤ were set here for values at or beyond the usual limits of such assays.
The target of assay [2] is HLA-B*08:01. Described as above.
Assay [3] deals with HLA-A*03:01. The description is as above. The note with it: source organism: Dengue virus 2 Jamaica/1409/1983.
In assay [4] the target is HLA-A*11:01. The description is as above. The conditions noted are these: source organism: Dengue virus 2 Jamaica/1409/1983.
Assay [5] addresses HLA-A*01:01. The assay is described as above.
Assay [6] has as its target HLA-A*23:01. Described as above. The conditions noted are these: source organism: Lymphocytic choriomeningitis virus (strain Armstrong).
Assay [7] addresses HLA-A*24:02. Described as above. The note with it: source organism: Lymphocytic choriomeningitis virus (strain Armstrong).
Assay [8] concerns the target HLA-A*26:01. The description is as above.
Assay [9] concerns the target HLA-A*29:02. Described as above.
The target in assay [10] is HLA-A*30:02. Described as above.
In assay [11] the target is HLA-A*32:01. The description is as above.
The target of assay [12] is HLA-B*08:01. Kind of assay: IEDB peptide-MHC binding, purified MHC/direct/fluorescence; filed as Kd, often an IC50 or EC50 that approximates it; ≥ and ≤ were set here for values at or beyond the usual limits of such assays.
In assay [13] the target is HLA-A*11:01. The description is as above. The note with it: source organism: SARS-CoV1.
Assay [14] deals with HLA-B*27:05. The assay is described as above. The conditions noted are these: source organism: SARS-CoV1.
Assay [15] concerns the target HLA-A*02:01. The assay is described as above. The note with it: source organism: SARS-CoV1.
Assay [16] concerns the target HLA-A*31:01. The description is as above. The note with it: source organism: SARS-CoV1.
In assay [17] the target is HLA-B*15:01. The assay is described as above. The conditions noted are these: source organism: SARS-CoV1.
[18] abbreviates: source organism: Dengue virus 4 Philippines/H241/1956.
[19] abbreviates: source organism: Vaccinia virus WR.
[20] abbreviates: source organism: Dengue virus 2 Jamaica/1409/1983.
Where [21] appears, read: source organism: Lymphocytic choriomeningitis virus (strain Armstrong).
Setting [22] is: source organism: Mammarenavirus guanaritoense.
The mark [23] stands for this setting: source organism: Dengue virus 4 Dominica/814669/1981.
The mark [24] stands for this setting: source organism: Mammarenavirus juninense.
[25] abbreviates: source organism: Mammarenavirus tacaribeense.

With TFIRSTMPLV, in assay [1] (setting [18]), the Kd came to 257 nM.

On to ITVSGLYPLA, for which the Kd in [1] (setting [18]) came to 462 nM.

As for KPAVRFAIL, in [2] (setting [19]), the equilibrium dissociation constant (Kd) is 1430 nM.

Take AFKNKRLVF: in assay [2] (setting [19]), the Kd came out at 1560 nM.

For KITAEWLWK, the values for the dissociation constant (Kd) in assay [3], in [4] and in assay [1] (setting [20]) were 99.4 nM, 1440 nM and 536 nM, respectively.

For GPDIYKGVY, the Kd in [5] (setting [21]) was at least 32200 nM; in [6] it was at least 77700 nM; in [7], at least 77500 nM; in assay [8] (setting [21]) it was at least 77900 nM; in [9] (setting [21]) it was 2470 nM; in [1] (setting [21]), at least 66200 nM. Also, the results for the Kd in [10] (setting [21]) and in [11] (setting [21]) were 1820 nM and at least 77800 nM, respectively.

With YLKAKREKL, the equilibrium dissociation constant (Kd) in [12] (source organism: Coxiella burnetii Q321) came out at 143 nM.

For CTLEGVWAPF, the Kd in [5] (setting [22]) was determined as 1220 nM; in assay [8] (setting [22]), 116 nM; in assay [9] (setting [22]) it was 957 nM; in [1] (setting [22]), 6960 nM; in [10] (setting [22]), 937 nM; in assay [11] (setting [22]), 44.2 nM.

RARISQGAG: the Kd in assay [1] (setting [20]) came out at 126 nM.

With ATREAQKRA, the Kd in assay [1] (setting [20]) is 27.4 nM.

On to DTVTYKCPLL, for which, in assay [1] (setting [23]), the dissociation constant Kd was found to be 3080 nM.

Turning to AARDRQFEK, the Kd in assay [1] (setting [19]) stood at 104 nM.

As for MMKWIISIL, in assay [2] (setting [19]), the dissociation constant Kd worked out at 1.28 nM.

Consider SINVKHTSV, for which, in assay [2] (setting [19]), the Kd amounted to 13.3 nM.

Take FPRSMLSIF: the Kd in assay [2] (setting [19]) was 9.88 nM.

Consider EHYVRITGL, for which the equilibrium dissociation constant (Kd) in [13] was at least 24300 nM; in [12] (source organism: SARS-CoV1), 3530 nM; in [14], at least 46900 nM.

For RTKIPLSKV, the equilibrium dissociation constant (Kd) in assay [1] (setting [19]) was 4.13 nM.

For LYDVIPVTY, the equilibrium dissociation constant (Kd) is 145 nM in assay [5] (setting [24]); at least 77900 nM in [8] (setting [24]); 375 nM in assay [9] (setting [24]); at least 78100 nM in [1] (setting [24]); 4200 nM in assay [10] (setting [24]); at least 77800 nM in [11] (setting [24]).

On to ASRRSWPLN, for which the Kd in assay [1] (setting [23]) is 50.2 nM.

RADRVIDPRR: in assay [1] (source organism: Dengue virus 1 Brazil/97-11/1997), the Kd came to 1930 nM.

HLRVLFSIF: in assay [2] (setting [19]), the dissociation constant (Kd) came out at 4.66 nM.

In the case of KYSRSKPAA, the Kd in [1] (setting [19]) was found to be 5.71 nM.

In the case of FVAAALHNV, the dissociation constant (Kd) in assay [5] (setting [25]) was at least 20500 nM; in assay [8] (setting [25]) it was 2540 nM; in assay [9] (setting [25]), 13500 nM; in assay [1] (setting [25]) it was 6100 nM; in assay [10] (setting [25]), at least 76900 nM; in assay [11] (setting [25]), at least 77800 nM.

Consider LMLVALLGAM, for which, in [2] (setting [18]), the Kd is 7190 nM.

For the sequence SNKRKVLAI, in [2] (setting [19]), the Kd stood at 1.85 nM.

Turning to MFFIRFGKM, the Kd in assay [2] (setting [19]) was found to be 31.9 nM.

Regarding KLFIRQEEV, the Kd is 400 nM in assay [15], 130 nM in assay [16], 2850 nM in [12] (source organism: SARS-CoV1) and 14900 nM in assay [17].
